{"source": "patent US20240076370A1", "about": "(Memorial Sloan Kettering, published 2024)", "binders": {"B1": {"name": "ET150-157 scFv (scFv)", "scFv": "SYELTQPPSASGTPGQRVTISCSGSSSNIGSNYVSWYQQLPGTAPKLLIYRNNQRPSGVPDRFSGSKSGTSASLAISGLRSEDEADYYCAAWDDSLSGVVFGGGTKLTVLGSRGGGGSGGGGSGGGGSLEMAEVQLVQSGAEVKKPGSSVKVSCKASGGTFSSYAISWVRQAPGQGLEWMGGIIPIFGTAKYAQKFQGRVTITADESTSTAYMELSSLRSEDTAVYYCARSHVAWSLLDYWGQGTLVTVSS", "notes": "also called ET150-7 scFv"}, "B2": {"name": "ET150-159 scFv (scFv)", "scFv": "QSVLTQPPSASGTPGQRVTISCSGSSSNIGSNYVYWYQQLPGTAPKLLIYRNNQRPSGVPDRFSGSKSGTSASLAISGLRSEDEADYYCAAWDDSLSGWVFGGGTKLTVLGSRGGGGSGGGGSGGGGSLEMAQVQLVQSGAEVKKPGSSVKVSCKASGGTFSSYAISWVRQAPGQGLEWMGWMNPNSGNTGYAQKFQGRVTMTRNTSISTAYMELSSLRSEDTAVYYCARYQSYKGSQSDSWGQGTLVTVSS", "notes": "also called ET150-9 scFv"}, "B3": {"name": "ET150-2 mIgG1 (antibody, V domains shown)", "VH": "QMQLVQSGAEVKKPGASVKVSCKASGYTFNRYAITWVRQAPGQGLEWMGWISAYNGNSHYAQKLQGRVTMTTDTSTGTAYMELRRLRSDDTAVYYCARMAYDSWGQGTLVTVSS", "VL": "QSVLTQPASVSGSPGQSLTISCTGTSNDVGAYKYVSWYQQYPGKAPKLILYDVFKRPSGVSNRFSGSKSDNTASLTISGLQAEDEADYYCFSLTSSNTYVFGTGTKVTVLG", "notes": "also called ET150-152"}, "B4": {"name": "ET150-5 mIgG1 (antibody, V domains shown)", "VH": "EVQLVESGGGLVKPGGSLRLSCAASGFTFSDYYMSWIRQAPGKGLEWVSYISSSGSTIYYADSVKGRFTISRDNAKNSLYLQMNSLRAEDTAVYYCARGYGKAYDQWGQGTLVTVSS", "VL": "QSVLTQPPSASGTPGQRVTISCSGSRSNVGGNYVFWYQQVPGATPKLLIYRSNQRPSGVPDRFAGSKSGSSASLAISGLRSEDEADYYCATWDDSLSGFVFGTGTKVTVLG", "notes": "also called ET150-155"}, "B5": {"name": "ET150-8 mIgG1 (antibody, V domains shown)", "VH": "QVQLVESGGGLVHPGGSLRLSCAASGFTFRSHSMNWVRQAPGKGLEWVSSISSDSTYTYYADSVKGRFTISRDNAKNSLYLQMNSLRAEDTAVYYCARSGGQWKYYDYWGQGTLVTVSS", "VL": "SSELTQDPAVSVALGQTVRITCQGDSLRSYYASWYQQKPGQAPVLVIYGKNNRPSGIPDRFSGSSSGNTASLTITGAQAEDEADYYCNSRDSSGNPPVVFGGGTKLTVLG", "notes": "also called ET150-158"}, "B6": {"name": "ET150-18 mIgG1 (antibody, V domains shown)", "VH": "EVQLVESGGGLIQPGGSLRLSCAASGFTFSNYAMNWVRQAPGKGLEWVSTINGRGSSTIYADSVKGRFTISRDNSKNTLYLQMNSLRAEDTATYYCARYISRGLGDSWGQGTLVTV", "VL": "QSVVTQPPSMSAAPGQQVTISCSGGNSNIERNYVSWYLQLPGTAPKLVIFDNDRRPSGIPDRFSGSKSGTSATLGITGLQTGDEADYYCGTWDSSLRGWVFGGGTKLTVLG", "notes": "also called ET150-168"}, "B7": {"name": "ET150-151 scFv (scFv)", "scFv": "QSVVTQPASVSGSPGQSITISCTGTSSDVGGYNYVSWYQQHPGKAPKLMIYDVSKRPSGVSNRFSGSKSGNTASLTISGLQAEDEADYYCSSYTSSSTLVFGGGTKLTVLGSRGGGGSGGGGSGGGGSLEMAEVQLVESGGAFVQPGGSLRLSCAASGFTFSSYAMTWVRQAPGKGLEWVSTISGRGRSTFYADSVKGRFTISRDNSKNTLYLQMNSLRAEDTAVYYCARYYHAGAFDLWGQGTLVTVSS", "notes": "also called ET150-1 scFv"}, "B8": {"name": "ET150-152 scFv (scFv)", "scFv": "QSVLTQPASVSGSPGQSLTISCTGTSNDVGAYKYVSWYQQYPGKAPKLILYDVFKRPSGVSNRFSGSKSDNTASLTISGLQAEDEADYYCFSLTSSNTYVFGTGTKVTVLGSRGGGGSGGGGSGGGGSLEMAQMQLVQSGAEVKKPGASVKVSCKASGYTFNRYAITWVRQAPGQGLEWMGWISAYNGNSHYAQKLQGRVTMTTDTSTGTAYMELRRLRSDDTAVYYCARMAYDSWGQGTLVTVSS", "notes": "also called ET150-2 scFv"}, "B9": {"name": "ET150-155 scFv (scFv)", "scFv": "QSVLTQPPSASGTPGQRVTISCSGSRSNVGGNYVFWYQQVPGATPKLLIYRSNQRPSGVPDRFAGSKSGSSASLAISGLRSEDEADYYCATWDDSLSGFVFGTGTKVTVLGSRGGGGSGGGGSGGGGSLEMAEVQLVESGGGLVKPGGSLRLSCAASGFTFSDYYMSWIRQAPGKGLEWVSYISSSGSTIYYADSVKGRFTISRDNAKNSLYLQMNSLRAEDTAVYYCARGYGKAYDQWGQGTLVTVSS", "notes": "also called ET150-5 scFv"}, "B10": {"name": "ET150-158 scFv (scFv)", "scFv": "SSELTQDPAVSVALGQTVRITCQGDSLRSYYASWYQQKPGQAPVLVIYGKNNRPSGIPDRFSGSSSGNTASLTITGAQAEDEADYYCNSRDSSGNPPVVFGGGTKLTVLGSRGGGGSGGGGSGGGGSLEMAQVQLVESGGGLVHPGGSLRLSCAASGFTFRSHSMNWVRQAPGKGLEWVSSISSDSTYTYYADSVKGRFTISRDNAKNSLYLQMNSLRAEDTAVYYCARSGGQWKYYDYWGQGTLVTVSS", "notes": "also called ET150-8 scFv"}, "B11": {"name": "ET150-168 scFv (scFv)", "scFv": "QSVVTQPPSMSAAPGQQVTISCSGGNSNIERNYVSWYLQLPGTAPKLVIFDNDRRPSGIPDRFSGSKSGTSATLGITGLQTGDEADYYCGTWDSSLRGWVFGGGTKLTVLGSRGGGGSGGGGSGGGGSLEMAEVQLVESGGGLIQPGGSLRLSCAASGFTFSNYAMNWVRQAPGKGLEWVSTINGRGSSTIYADSVKGRFTISRDNSKNTLYLQMNSLRAEDTATYYCARYISRGLGDSWGQGTLVTV", "notes": "also called ET150-18 scFv"}}}
{"target": "T1, human G-protein coupled receptor family C group 5 member D (GPRC5D) (human, UniProt Q9NZD1 1-345)", "T1 construct": "Overexpressed on 3T3 cells in the FACS assays; also called human GPRC5D; 3T3-GPRC5D", "T1 sequence (Q9NZD1 whole entry)": "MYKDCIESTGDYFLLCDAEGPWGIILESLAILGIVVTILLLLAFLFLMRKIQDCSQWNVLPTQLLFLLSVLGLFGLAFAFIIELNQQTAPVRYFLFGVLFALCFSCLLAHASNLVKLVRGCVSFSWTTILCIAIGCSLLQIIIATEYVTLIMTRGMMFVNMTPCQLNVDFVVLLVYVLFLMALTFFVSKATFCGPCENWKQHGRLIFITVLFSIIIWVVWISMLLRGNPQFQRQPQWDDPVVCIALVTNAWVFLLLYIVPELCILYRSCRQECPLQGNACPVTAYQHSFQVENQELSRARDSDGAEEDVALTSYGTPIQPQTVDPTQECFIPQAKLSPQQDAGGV", "test": "FACS, scFv phage clones on 3T3 cells overexpressing GPRC5D"}
{"binder": "B1", "binding result": "binds"}
{"binder": "B2", "binding result": "binds"}
{"target": "T1, human G-protein coupled receptor family …", "test": "flow cytometry (MFI, FL2) on 3T3-GPRC5D and parental 3T3 cells at 10 and 1 µg/mL, PE-labelled anti-mouse IgG secondary antibody", "method": "Each antibody (ET150-1, ET150-2, ET150-5, ET150-8, ET150-18) was incubated with 3T3 or 3T3-GPRC5D cells at 10 or 1 μg/mL, then with anti-M13 mouse antibody. Finally PE-labeled anti-mouse IgG 2nd antibody was added to the reaction. The binding was measured by FACS and expressed as mean fluorescence intensity (MFI) (FIG. 13). Cells incubated with 2nd antibody alone, ET901 mIgG1 isotype control and cells only were used as negative controls."}
{"binder": "B3", "binding result": "binds"}
{"binder": "B4", "binding result": "binds"}
{"binder": "B5", "binding result": "binds"}
{"binder": "B6", "binding result": "binds"}
{"target": "T1, human G-protein coupled receptor family …", "test": "flow cytometry: phage clone on 3T3-GPRC5D cells (printed 3T3-ET150), anti-M13 mouse antibody, then APC-labelled anti-mouse IgG; control without phage (A04 anti-M13+ APC mIgG) median 10.9", "method": "FACS Screening. […] Phage clones were incubated with 3T3-GPRC5D cell line, then with anti-M13 mouse antibody. Finally APC-labeled anti-mouse IgG 2nd antibody was added to the reaction after washing again. The binding was measured by FACS and expressed as mean fluorescence intensity (MFI). Cells incubated with M13 K07 helper phage and cells only were used as negative controls."}
{"binder": "B7", "Median, RED2-HLin": 3230}
{"binder": "B8", "Median, RED2-HLin": 2400}
{"binder": "B9", "Median, RED2-HLin": 3220}
{"binder": "B10", "Median, RED2-HLin": 3110}
{"binder": "B11", "Median, RED2-HLin": 3180}
